Reference: patent US20140274782A1, “AFFINITY REAGENTS AND METHODS FOR DETECTION, PURIFICATION, AND PROTEOMIC ANALYSIS OF METHYLATED PROTEINS” (The Board of Trustees of the Leland Stanford Junior …, priority 2013, published 2014)

T1: G9a and GLP (Homo sapiens, UniProt Q96KQ7+Q9H9B1)
T1 sequence (Q96KQ7 2-1210 limits assumed): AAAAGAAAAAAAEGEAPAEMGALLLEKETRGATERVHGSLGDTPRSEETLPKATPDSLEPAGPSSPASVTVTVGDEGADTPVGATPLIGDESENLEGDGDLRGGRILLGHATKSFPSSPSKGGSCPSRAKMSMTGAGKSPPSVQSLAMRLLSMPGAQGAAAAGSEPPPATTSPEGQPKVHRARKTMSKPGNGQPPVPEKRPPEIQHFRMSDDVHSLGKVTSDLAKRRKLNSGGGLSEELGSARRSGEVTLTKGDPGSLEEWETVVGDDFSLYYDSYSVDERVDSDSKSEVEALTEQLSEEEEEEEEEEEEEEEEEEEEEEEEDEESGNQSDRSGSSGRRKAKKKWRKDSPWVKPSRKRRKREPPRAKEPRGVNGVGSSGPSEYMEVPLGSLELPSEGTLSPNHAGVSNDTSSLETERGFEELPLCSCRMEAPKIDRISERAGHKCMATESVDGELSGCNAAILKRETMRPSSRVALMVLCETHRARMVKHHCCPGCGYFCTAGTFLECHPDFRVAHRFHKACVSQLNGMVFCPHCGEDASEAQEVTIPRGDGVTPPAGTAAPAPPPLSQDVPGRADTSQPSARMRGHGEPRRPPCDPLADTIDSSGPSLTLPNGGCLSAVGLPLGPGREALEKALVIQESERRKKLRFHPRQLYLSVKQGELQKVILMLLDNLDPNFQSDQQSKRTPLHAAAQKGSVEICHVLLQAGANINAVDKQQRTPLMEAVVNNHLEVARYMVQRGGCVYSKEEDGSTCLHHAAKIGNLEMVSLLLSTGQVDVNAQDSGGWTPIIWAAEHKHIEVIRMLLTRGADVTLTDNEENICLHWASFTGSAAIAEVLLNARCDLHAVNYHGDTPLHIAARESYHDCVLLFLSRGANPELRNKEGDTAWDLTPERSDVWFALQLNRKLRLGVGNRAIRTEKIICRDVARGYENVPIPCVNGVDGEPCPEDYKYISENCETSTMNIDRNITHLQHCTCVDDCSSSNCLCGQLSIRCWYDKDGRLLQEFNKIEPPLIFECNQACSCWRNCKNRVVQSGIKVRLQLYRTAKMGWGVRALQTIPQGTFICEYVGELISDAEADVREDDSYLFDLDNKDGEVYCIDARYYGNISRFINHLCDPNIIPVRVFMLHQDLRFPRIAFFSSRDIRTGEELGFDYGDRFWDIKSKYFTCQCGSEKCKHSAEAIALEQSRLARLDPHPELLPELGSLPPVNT
T1 sequence (Q9H9B1 2-1298 limits assumed): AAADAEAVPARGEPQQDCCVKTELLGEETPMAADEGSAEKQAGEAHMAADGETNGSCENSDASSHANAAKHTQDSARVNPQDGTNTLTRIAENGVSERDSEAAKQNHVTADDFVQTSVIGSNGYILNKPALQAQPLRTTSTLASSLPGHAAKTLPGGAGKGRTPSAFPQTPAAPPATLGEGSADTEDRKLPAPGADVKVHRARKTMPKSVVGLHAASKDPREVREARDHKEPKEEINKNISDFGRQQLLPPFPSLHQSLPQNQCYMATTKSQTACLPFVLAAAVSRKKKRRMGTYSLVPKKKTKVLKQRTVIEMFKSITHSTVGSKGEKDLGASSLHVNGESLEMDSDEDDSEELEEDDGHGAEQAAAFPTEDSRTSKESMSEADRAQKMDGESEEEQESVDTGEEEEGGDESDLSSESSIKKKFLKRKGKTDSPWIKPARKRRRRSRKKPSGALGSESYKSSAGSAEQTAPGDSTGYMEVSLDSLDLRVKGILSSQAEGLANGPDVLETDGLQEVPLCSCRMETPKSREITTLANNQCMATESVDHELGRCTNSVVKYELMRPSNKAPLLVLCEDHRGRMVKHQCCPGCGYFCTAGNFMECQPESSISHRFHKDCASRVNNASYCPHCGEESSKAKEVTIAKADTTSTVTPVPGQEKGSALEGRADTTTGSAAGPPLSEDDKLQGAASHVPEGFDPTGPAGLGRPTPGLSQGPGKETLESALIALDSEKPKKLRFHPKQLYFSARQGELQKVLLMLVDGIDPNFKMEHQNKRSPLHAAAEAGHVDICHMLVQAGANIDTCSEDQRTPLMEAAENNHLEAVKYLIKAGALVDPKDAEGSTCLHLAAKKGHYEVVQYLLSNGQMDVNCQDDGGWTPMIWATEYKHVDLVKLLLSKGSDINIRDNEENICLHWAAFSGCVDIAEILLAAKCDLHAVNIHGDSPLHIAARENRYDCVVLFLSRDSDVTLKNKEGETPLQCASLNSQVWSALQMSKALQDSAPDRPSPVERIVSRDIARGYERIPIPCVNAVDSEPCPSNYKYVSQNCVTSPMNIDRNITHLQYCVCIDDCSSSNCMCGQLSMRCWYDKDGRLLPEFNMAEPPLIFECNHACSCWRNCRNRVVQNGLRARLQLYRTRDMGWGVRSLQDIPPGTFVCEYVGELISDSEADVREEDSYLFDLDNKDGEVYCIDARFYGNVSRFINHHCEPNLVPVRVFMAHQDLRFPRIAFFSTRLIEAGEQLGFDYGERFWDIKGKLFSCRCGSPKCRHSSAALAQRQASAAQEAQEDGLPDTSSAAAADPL


How the values were obtained:
G9a and GLP = biological target: T1, G9a and GLP; test: Triple SILAC pull-down after UNC0638 treatment of 293T cells, DMSO/UNC0638 ratio of protein captured by 3×MBT; format: cell-based; set-up: endogenous in cells; host or cells: HEK 293T; conditions: all values in log base 2; for Relative to UNC0638 UNC Heavy / Relative to UNC0638 UNC Light: SILAC ratio DMSO relative to UNC0638, pull-down with 3xMBT; for Relative to UNC0638 UNC Heavy: UNC0638 in heavy SILAC media; for Relative to UNC0638 UNC Light: UNC0638 in light SILAC media; for Relative to UNC0638 Average: average of UNC Light and UNC Heavy experiments;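 as to all read-outs here: mass spectrometry (Q-Exactive) SILAC quantitation, DMSO/UNC0638 ratio computed after subtracting 3×MBTD355N mutant pull-down background, only proteins with at least twofold 3×MBT over mutant signal considered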
3×MBT domain of L3MBTL1 = test: Triple SILAC pull-down, 3xMBT/3xMBTD355N ratio (cytoplasmic, nuclear and chromatin fractions of 293T cells); format: binding, human; conditions: SILAC ratio 3xMBT vs 3xMBTD355N pull-down, 293T cells, all values in log base 2; for 3xMBT/D355N UNC Heavy: experiment with UNC0638 in heavy SILAC media; for 3xMBT/D355N UNC Light: experiment with UNC0638 in light SILAC media;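 as to all read-outs here: proteins quantified with MaxQuant, requiring at least two unique peptides and quantification in both label directions, normalized to the mean of proteins from a digested loading control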

Relative to UNC0638 UNC Heavy (G9a and GLP) | Relative to UNC0638 UNC Light (G9a and GLP) | Relative to UNC0638 Average (G9a and GLP) | Molecule | 3xMBT/D355N UNC Heavy (3×MBT domain of L3MBTL1) | 3xMBT/D355N UNC Light (3×MBT domain of L3MBTL1)
−0.10 log base 2 | −0.07 log base 2 | −0.08 log base 2 | YTHDC2 (protein, UniProt Q9H6S0 1-1430, looked up) 3'-5' RNA helicase YTHDC2: MSRPSSVSPRQPAPGGGGGGGPSPCGPGGGGRAKGLKDIRIDEEVKIAVNIALERFRYGDQREMEFPSSLTSTERAFIHRLSQSLGLVSKSKGKGANRYLTVKKKDGSETAHAMMTCNLTHNTKHAVRSLIQRFPVTNKERTELLPKTERGNVFAVEAENREMSKTSGRLNNGIPQIPVKRGESEFDSFRQSLPVFEKQEEIVKIIKENKVVLIVGETGSGKTTQIPQFLLDDCFKNGIPCRIFCTQPRRLAAIAVAERVAAERRERIGQTIGYQIRLESRVSPKTLLTFCTNGVLLRTLMAGDSTLSTVTHVIVDEVHERDRFSDFLLTKLRDLLQKHPTLKLILSSAALDVNLFIRYFGSCPVIYIQGRPFEVKEMFLEDILRTTGYTNKEMLKYKKEKQQEEKQQTTLTEWYSAQENSFKPESQRQRTVLNVTDEYDLLDDGGDAVFSQLTEKDVNCLEPWLIKEMDACLSDIWLHKDIDAFAQVFHLILTENVSVDYRHSETSATALMVAAGRGFASQVEQLISMGANVHSKASNGWMALDWAKHFGQTEIVDLLESYSATLEFGNLDESSLVQTNGSDLSAEDRELLKAYHHSFDDEKVDLDLIMHLLYNICHSCDAGAVLIFLPGYDEIVGLRDRILFDDKRFADSTHRYQVFMLHSNMQTSDQKKVLKNPPAGVRKIILSTNIAETSITVNDVVFVIDSGKVKEKSFDALNFVTMLKMVWISKASAIQRKGRAGRCRPGICFRLFSRLRFQNMLEFQTPELLRMPLQELCLHTKLLAPVNCPIADFLMKAPEPPPALIVRNAVQMLKTIDAMDTWEDLTELGYHLADLPVEPHLGKMVLCAVVLKCLDPILTIACTLAYRDPFVLPTQASQKRAAMLCRKRFTAGAFSDHMALLRAFQAWQKARSDGWERAFCEKNFLSQATMEIIIGMRTQLLGQLRASGFVRARGGGDIRDVNTNSENWAVVKAALVAGMYPNLVHVDRENLVLTGPKEKKVRFHPASVLSQPQYKKIPPANGQAAAIKALPTDWLIYDEMTRAHRIANIRCCSAVTPVTILVFCGPARLASNALQEPSSFRVDGIPNDSSDSEMEDKTTANLAALKLDEWLHFTLEPEAASLLLQLRQKWHSLFLRRMRAPSKPWSQVDEATIRAIIAVLSTEEQSAGLQQPSGIGQRPRPMSSEELPLASSWRSNNSRKSSADTEFSDECTTAERVLMKSPSPALHPPQKYKDRGILHPKRGTEDRSDQSSLKSTDSSSYPSPCASPSPPSSGKGSKSPSPRPNMPVRYFIMKSSNLRNLEISQQKGIWSTTPSNERKLNRAFWESSIVYLVFSVQGSGHFQGFSRMSSEIGREKSQDWGSAGLGGVFKVEWIRKESLPFQFAHHLLNPWNDNKKVQISRDGQELEPLVGEQLLQLWERLPLGEKNTTD | 1.74 log base 2 | 2.87 log base 2
−0.35 log base 2 | 0.18 log base 2 | −0.09 log base 2 | SMARCA1 (protein, UniProt P28370 1-1042, looked up) SWI/SNF-related …: MEQDTAAVAATVAAADATATIVVIEDEQPGPSTSQEEGAAAAATEATAATEKGEKKKEKNVSSFQLKLAAKAPKSEKEMDPEYEEKMKADRAKRFEFLLKQTELFAHFIQPSAQKSPTSPLNMKLGRPRIKKDEKQSLISAGDYRHRRTEQEEDEELLSESRKTSNVCIRFEVSPSYVKGGPLRDYQIRGLNWLISLYENGVNGILADEMGLGKTLQTIALLGYLKHYRNIPGPHMVLVPKSTLHNWMNEFKRWVPSLRVICFVGDKDARAAFIRDEMMPGEWDVCVTSYEMVIKEKSVFKKFHWRYLVIDEAHRIKNEKSKLSEIVREFKSTNRLLLTGTPLQNNLHELWALLNFLLPDVFNSADDFDSWFDTKNCLGDQKLVERLHAVLKPFLLRRIKTDVEKSLPPKKEIKIYLGLSKMQREWYTKILMKDIDVLNSSGKMDKMRLLNILMQLRKCCNHPYLFDGAEPGPPYTTDEHIVSNSGKMVVLDKLLAKLKEQGSRVLIFSQMTRLLDILEDYCMWRGYEYCRLDGQTPHEEREEAIEAFNAPNSSKFIFMLSTRAGGLGINLASADVVILYDSDWNPQVDLQAMDRAHRIGQKKPVRVFRLITDNTVEERIVERAEIKLRLDSIVIQQGRLIDQQSNKLAKEEMLQMIRHGATHVFASKESELTDEDITTILERGEKKTAEMNERLQKMGESSLRNFRMDIEQSLYKFEGEDYREKQKLGMVEWIEPPKRERKANYAVDAYFREALRVSEPKIPKAPRPPKQPNVQDFQFFPPRLFELLEKEILYYRKTIGYKVPRNPDIPNPALAQREEQKKIDGAEPLTPEETEEKEKLLTQGFTNWTKRDFNQFIKANEKYGRDDIDNIAREVEGKSPEEVMEYSAVFWERCNELQDIEKIMAQIERGEARIQRRISIKKALDAKIARYKAPFHQLRIQYGTSKGKNYTEEEDRFLICMLHKMGFDRENVYEELRQCVRNAPQFRFDWFIKSRTAMEFQRRCNTLISLIEKENMEIEERERAEKKKRATKTPMVKFSAFS | 0.79 log base 2 | 3.03 log base 2
−0.32 log base 2 | 0.11 log base 2 | −0.11 log base 2 | NCBP1 (protein, UniProt Q09161 1-790, looked up) Nuclear cap-binding protein …: MSRRRHSDENDGGQPHKRRKTSDANETEDHLESLICKVGEKSACSLESNLEGLAGVLEADLPNYKSKILRLLCTVARLLPEKLTIYTTLVGLLNARNYNFGGEFVEAMIRQLKESLKANNYNEAVYLVRFLSDLVNCHVIAAPSMVAMFENFVSVTQEEDVPQVRRDWYVYAFLSSLPWVGKELYEKKDAEMDRIFANTESYLKRRQKTHVPMLQVWTADKPHPQEEYLDCLWAQIQKLKKDRWQERHILRPYLAFDSILCEALQHNLPPFTPPPHTEDSVYPMPRVIFRMFDYTDDPEGPVMPGSHSVERFVIEENLHCIIKSHWKERKTCAAQLVSYPGKNKIPLNYHIVEVIFAELFQLPAPPHIDVMYTTLLIELCKLQPGSLPQVLAQATEMLYMRLDTMNTTCVDRFINWFSHHLSNFQFRWSWEDWSDCLSQDPESPKPKFVREVLEKCMRLSYHQRILDIVPPTFSALCPANPTCIYKYGDESSNSLPGHSVALCLAVAFKSKATNDEIFSILKDVPNPNQDDDDDEGFSFNPLKIEVFVQTLLHLAAKSFSHSFSALAKFHEVFKTLAESDEGKLHVLRVMFEVWRNHPQMIAVLVDKMIRTQIVDCAAVANWIFSSELSRDFTRLFVWEILHSTIRKMNKHVLKIQKELEEAKEKLARQHKRRSDDDDRSSDRKDGVLEEQIERLQEKVESAQSEQKNLFLVIFQRFIMILTEHLVRCETDGTSVLTPWYKNCIERLQQIFLQHHQIIQQYMVTLENLLFTAELDPHILAVFQQFCALQA | 1.27 log base 2 | 2.23 log base 2
